Bridges are numbered along the chain shown (N, C = ends). [ ]: non-standard residue; d: D form. The star is where a group is joined. mli = maleimide cyclization element: 3,4-maleimide inserted symmetrically, forming a vinyl thioether with each Cys sulfur; Ttds = 1,13-diamino-4,7,10-trioxatridecan-succinamic acid, NCCCOCCOCCOCCCNC(=O)CCC(=O)*; mli(DOTA-Ttd) = 3,4-N-(DOTA-Ttd)-maleimide bridging two Cys S atoms as vinyl thioethers; DOTA = O=C(O)CN1CCN(CC(=O)O)CCN(CC(=O)*)CCN(CC(=O)O)CC1; Nle = CCCC[C@H](N)C(=O)O; Hexanoyl = CCCCCC(=O)*

This experiment has as its target fibroblast activation protein (FAP) on FAP-expressing human WI-38 fibroblasts (human), Q12884. As to the kind of experiment: competitive FACS on WI-38 cells vs 3 nM Cy5-labeled probe; A = pIC50 >7.0. Conditions: remark: other sources report otherwise.

B1: compound DOTA-Ttds-Nle-[Cys(mli)-Pro-Pro-Thr-Glu-Phe-Cys]-Asp-NH2 (2007) (peptide)
peptide: {DOTA-Ttds}-[Nle]CPPTEFCD-NH2
modifications: linker 2-8 via mli
B1 came in with a pIC50 Category (FACS) above 7 pIC50.

B2: compound DOTA-Nle-[Cys-Pro-Pro-Thr-Glu-Phe-Cys]-Asp-NH2 (1004) (peptide)
peptide: CPPTEFCD
HELM: PEPTIDE1{[O=C(O)CN1CCN(CC(=O)O)CCN(CC(=O)[*:2])CCN(CC(=O)O)CC1].[Nle].C.P.P.T.E.F.C.D.[am]}$PEPTIDE1,PEPTIDE1,3:R3-9:R3$$$V2.0
SMILES: CCCC[C@H](NC(=O)CN1CCN(CC(=O)O)CCN(CC(=O)O)CCN(CC(=O)O)CC1)C(=O)N[C@H]1CSSC[C@@H](C(=O)N[C@@H](CC(=O)O)C(N)=O)NC(=O)[C@H](Cc2ccccc2)NC(=O)[C@H](CCC(=O)O)NC(=O)[C@H]([C@@H](C)O)NC(=O)[C@@H]2CCCN2C(=O)[C@@H]2CCCN2C1=O
Take B2: the pIC50 Category (FACS) was above 7 pIC50.

B3: compound Hex-[Cys(mli(DOTA-Ttd))-Pro-Pro-Thr-Glu-Phe-Cys]-Asp-NH2 (2020) (peptide)
peptide: Hexanoyl-CPPTEFCD-NH2
modifications: linker 1-7 via mli(DOTA-Ttd)
Take B3: the pIC50 Category (FACS) is above 7 pIC50.

B4: compound DOTA-Ttds-Nle-[Cys-Pro-Pro-Thr-Glu-Phe-Cys]-Asp-NH2 (1003) (peptide)
peptide: {DOTA-Ttds}-[Nle]CPPTEFCD-NH2
modifications: disulfide 2-8
B4: the pIC50 Category (FACS) was above 7 pIC50.

(Values after US20240115745A1, “COMPOUNDS COMPRISING A FIBROBLAST ACTIVATION PROTEIN LIGAND AND USE THEREOF” (3B PHARMACEUTICALS GMBH, priority 2021, published 2024).)
